This data set in a line: label from the status in PepcDB records.

In the case of “MDWDDEYSHNSFDLHCLLNSFPGDLEFEQIFSDIDEKIEQNAASIKHCIKEIQSEINKQCPGVQLQTTTDCFEWLTNYNYSTSESSFISHGDLIKFFKTLQDLLKNEQNQEEMTLDLLWDLSCHSSVSFPSTLSGTSFHFLSRTSLHSVEDNSSMDVKSMWDDIRLHLRRFLVSKLQSHNEINNSQQKILLKKQCLQQLLFLYPESEVIIKYQNIQNKLLANLLWNCFPSYNRDSNLDVIAHGYQSTMLKLYSVIKEDFNTLCEILAPSSMVKFIKETYLDTVTEEMAKFLENFCELQFRENAVRVVKTSKSSSKHRGAVHALG”, the protein production result is on record as “not failed”.
Take “MDWYLKVLKNYVGFRGRARRKEYWMFILVNIIFTFVLGLLDKMLGWQRAGGEGILTTIYGILVFLPWWAVQFRRLHDTDRSAWWALLFLIPFIGWLIIIVFNCQAGTARRKPLWTRSKTGTLKQICSPDV”: the protein production entry is “failed”.
Regarding “MDWYVGTEWEDKNRGLAKKVIGLQFTEMDKPTIISTVEFSVNKKATNLGGRPSKYLVSDESATYPQKHSLEMGTSLTAVDCYLELLLQQFVPGETAACSITTKTGERIEFELKLEKIVKNTQVEKLSAAEIYEVALRLKESGVATFKTFPKFAFDYFVRAAKLLITYKPFDKLTKKTNGINGQAVEELFIQIQTNLAACLLQEKRYEHVIYHTQFVETEESPSEKSIYRRALAYYHLKEFAKAQATIERMPNYEEKREFSKLRDNIAVSWKDSKAHYKEVVQRMFS”, the protein production result is on record as “failed”.
Consider “MDYCYTGDTHEKLFAAYRADEEPFPTQTQMEFPRREHRRPEIDILKRLFFPTCWNAAELVRDELAVLDRLDTLGGLFFAGIRPYSGSDPAETVDAVIDQLPAVRTRLKKDVEAAFKGDPAAKTYMEIIRSYPGFMAILVQRVAHTLYEAGASEYARELTEYAKTETGIDIHPGAEIGDHFFIDHGTGVVIGETTTVGEWVRLYQDVTLGALHFEADESDEHRLKKGYKRHPDIGDHVVIGAGTKVLGAISVGDHVSIGANSWVTDDIPDDTKVYVTDHPTQERKRTN”, for which the protein production result was “failed”.
For “MDYNKTAKDILKLLGGEKNVMSAAHCATRLRLVLKNEKEARTKEIEKLDGVKGVFSSSGQYQIIIGQGSVNKVYKAFVEGTGISESSLSDTKKAAMKNM”, the protein production result was “not failed”.
Turning to “MDYPNQTSSALFHSSEPLGLNLVDYLRVLLSQYWLIIGIAIGATSLTFGVSLLLPQKFRATATLQIERDVPKVMNVDNLIPVESPLDRDFYQTQYQLLQSRSLARAVIRKMNLGREPMFKPLVDKVLSKVQSLPVNTRNTAIESALIEMMLNSLKIEPILNSRLVYVHFDSHDPTLSAKVANAYAKMFIENNQQRRSNAFSFAMKYLAGRLEQLRIKVDKSERNVVAYSTDEKIVSVGDEKPSLSAQNLSDLNALLASAQNERIRAEASWRQASIGDGLSIPQVLSNLLVQSLRTDQANMVNEYQQKLSMFKPEYPEMQRLKARIKENTKQINAEVFNIRQSLKAQYEAALRQENLLNDRIAVLEKDELDLKTRLIRYNLLEREAETDRQLYDALLQRYKEISVLGDVGSNNVTVVDAADIPSRPISPNLLMNTILGGIFGVFLGLTVAMVRYSMHGAKRINVMSVE”, the protein production result is listed as “failed”.
Regarding “MEAARSMTFSECAALYIKAHRSSWKNTKHADQWTNTIKTYCGPVIGPLSVQDVDTKLIMKVLDPIWEQKPETASRLRGRIESVLDWATVRGYREGDNPARWRGYLEHHHHHH”, the protein production entry is recorded as “not failed”.
Then “MEAFTFNTTELILLSATGVLLIIQLIYYLGLYNRIHTHNLAVGKDEVHFGRELPPLSVVICARNESENLRRNLPTILKQDYPDFEVIVINDGSTDESEDLLSALEEEYPNLYHSFTPDSARYISRKKLALTLGIKASKHDWLVFTEADCAPVSNQWLRRMARNFTSSTDIVLGYSGYERGKGWLHKRASFDSLFTSLRYLGFALAGKPYMGIGRNLAYRKELFFKVKGFSTHLNMQRGEDDLFINQVANENNTRVETSPDAVIRMQPVERYKDWKEEKVSYMATSRFYKGSQRWLLGLETGTRLLFYAACLVGIVFGILSFHWLVVGLSLLLWFVRYSVQAYVINKTAGEMGDNRSYYFTLPVFDIIRPLQTLKLKLYRLYRGKGDFMRR”, with “failed”; and “MEAKKYQAFWRGAIILTIASFVTKVLSAFYRIPYQNIAGDVGFYIYQQIYPFYGFCLILATYGFPVIISKMVAERLERGKQKEAEEIICVSFWFLLGIGFIGFFTLFFGAETIAVAMGDIHLDKLLRVISFSFLLMPFLSVARGYFQGFNNMMPTAVSQVIEQTIRVSIIVFLSLFLIAHGFDLYTVGAGAMLGSIAGGLIGIIVLILYMRQDFRSIFFKSAARIKGKRKIVKILFWQGLAICVSNLVLIFIQMADSVSFYSLLIGAGEQAENAKVLKGVYDRSIPLMQLGTVVTTSFSLSLIPIITAAKERGDLSFIQEKVKLAMKITFVIGLAAAIGLTCIIQPTNIMLFENSDGSDVLSILSLSILFSSLSITTASILQGLGQTFKPALFVVFAGCLKLALNYIFMPYFGVKGAAFATLCALIIISGLNSLLLTRAVSGSLINKRNMLGIVISGICMGFVLMMFTRVLQMSGLVINTEHRGSATLEALLGVAIGGLTYMFFILKLRVFTKKELGTVMKQEKKEGSLKKSG”, with “failed”.
Turning to “MEALAMAGVDYQEWGLSIEEWELQESVVPLHLLADDFKEEEQEEDHQDNDDDDRVLDGLAVKQSVTRDIRASVGKFIEQSMSHMIVHLKQLKFLTLLLENFLFTHVLDFLL”, the protein production entry is “failed”.
Then “MEALKRKIEEEGVVLSDQVLKVDSFLNHQIDPLLMQRIGDEFASRFAKDGITKIVTIESSGIAPAVMTGLKLGVPVVFARKHKSLTLTDNLLTASVYSFTKQTESQIAVSGTHLSDQDHVLIIDDFLANGQAAHGLVSIVKQAGASIAGIGIVIEKSFQPGRDELVKLGYRVESLARIQSLEEGKVSFVQEVHS”, with “not failed”; and “MEANTSSSGTVTGQRFAERRRSLPPGAELRQRLLKQLKELCDQIGKAYSTLVQKAALVIEPADQAVSLEPDTQRQATCITNLSDEGELWTTVYELNLGVQNLLMFIEDIRLLLLTQAQVPGPSVEENGLKTAGKGGCSPTELEGARFSDRLSSSNTHRFLEQLWDRYTP”, with “not failed”.
Take “MEASMERFDNAPETALAWHRQGLGAALATVVETWGSAPRRVGAQLVIGGDGRIEGSVSGGCVEGAVIVEALEALEEGQARLLEFGVSDEDAFAVGLACGGTIRVLVEPVGQVLSEVMLAELVAARASRQALAYVVDTARGTRALVRDAYPERMRMDRSGFDEDGRTFVAVHNPPLRLIVVGAVHIAQALVPMARIAGYDPVVIDPREAFASDARFPGETILHDWPDEAVAKLGLDARTALVLLTHDPKLDDPALEAALAADVFYIGALGSTRTHAKRVARMQEAGFTEAQIGRIHGPVGLDIGAAGPAEIAVAILAQMTAVLRGRA”: the protein production entry is listed as “not failed”.
In the case of “MEATKERVGLLDTILPPALADAGLEDCALPPESIQEAFRKAANAVKSRAASIFDHEEEDGCLADPIPETADKIIVGGDNERDTGPCLAGKGIEKLAESKQAGDLVVAGEGEEGKSCVDGLKDLDVEGIERSSEKKDQSDEDEEEEMKPILVEGFV”, the protein production entry is “failed”.
As for “MEAVIFDMDGVLMDTEPLYFEAYRRVAESYGKPYTEDLHRRIMGVPEREGLPILMEALEIKDSLENFKKRVHEEKKRVFSELLKENPGVREALEFVKSKRIKLALATSTPQREALERLRRLDLEKYFDVMVFGDQVKNGKPDPEIYLLVLERLNVVPEKVVVFEDSKSGVEAAKSAGIERIYGVVHSLNDGKALLEAGAVALVKPEEILNVLKEVL”, the entry is “not failed”; as for “MECRPLCIDDLELVCRHREAMFREAGRDALTLAAMQDPFRDWLLPRLADGSYFGWVMEEGGAPLAGIGLMVIEWPPHPSHPLQDKRGYILNLYVDPSHRERGIGQALMNRAEAEFAERGIAFAVLHATEMGQPLYARMGWSPTTEMSKPIAG”, “not failed”; as for “MEDERIKLLFKEKALEILMTIYYESLGGNDVYIQYIASKVNSPHSYVWLIIKKFEEAKMVECELEGRTKIIRLTDKGQKIAQQIKSIIDIMENDT”, “not failed”.
For “MEDGVTPPLLITEKDTTMIRVKEEVKKQLWLSAPLIGVSLLQYSLQVISVMFVGHLGSLPLSAASIATSFASVTGFTFLLGTASALETLCGQAYGAKLYGKLGIQMQRAMFVLLILSVPLSIIWANTEQILVLVHQDKSIASVAGSYAKYMIPSLFAYGLLQCINRFLQAQNNVFPVFVCSGITTCLHLLLCWLFVLKTGLGYRGAALAISVSYWFNVILLSCYVKFSPSCSHSWTGFSKEAFQELYDFSKIAFPSAVMVCLELWSFELLVLASGLLPNPVLETSVLSICLNTSLTIWQISVGLGGAASIRVSNELGAGNPQVAKLAVYVIVGIAVAEGIVVVTVLLSIRKILGHAFSSDPKIIAYAASMIPIVACGNFLDGLQCVLSGVARGCGWQKIGACVNLGSYYLVGVPLGLLLGFHFHIGGRGLWLGIVTALSVQVLCLSLVTIFTNWDKEAKKATNRVGSSDDKDGDVQ”, the protein production entry was “failed”.
Then “MEDKRNRGRRITDRITEAYYELMKIVAENNHERMFEYYVEDDEAYIFKIVNSSPAQETVYPFFKQNIDTYMSECPADSIECFKKQLDKCLLRPMRTAFQLSFISEDGKSRPVEMYMVSIPDLDKKVCMVVGVMFDIRDEKGLLDSLTGTYNHLAFENKCTSLIRQKGTKLLFVMLDVDDFKIVNDTLGHNVGDRVLSQTGQVLKEAVGANGIVGRLGGDEFAAIVFGLEDSDAVDEFCVKLSGRLKNIIFDMEYSASIGMTTGDDRELTFKDLYYEADQAMYYSKRQGKNRISFFNSIRKNDITVPHNSCAPSITDVSCRMSDREIFSYDEMPDYILAVDEESRRIVFVNKAIRNSSVMTASQIDEFISKPFEDGFIDLFLRKKEQGNRVSVFQERIIPTI”, with “failed”; and “MEDLSDVFDIYAICACCKVAPTSEGTKNEPFSPRTFRGLGNKGTLPWKCNSVDMKYFRSVTTYVDESKYEKLKWKRERYLRMEASQGGGDNTSGGDNNADKLQNVVVMGRSNWESIPKQYKPLPNRINVVLSKTLTKEDVKEKVFIIDSIDDLLLLLKKLKYYKCFIIGGAQVYRECLSRNLIKQIYFTRINGAYPCDVFFPEFDESQFRVTSVSEVYNSKGTTLDFLVYSK”, with “not failed”; and “MEEDVPEAEKLMCPKEVVEKNKDKQEEEEDEKGAKGGILNNLISNFMDCTTTTVEGKSSENIQKSLCEDEDEKEQESPSVGILEKIISHLPEDVAPTTDEAAILIHSAID”, with “failed”.
With “MEEGKMDENEWGYHGEGNKSLVVAHAQRCVVLRFLKFPPNRKKTSEEIFQHLQNIVDFGKNVMKEFLGENYVHYGEVVQLPLEFVKQLCLKIQSERPESRCDKDLDTLSGYAMCLPNLTRLQTYRFAEHRPILCVEIKPKCGFIPFSSDVTHEMKHKVCRYCMHQHLKVATGKWKQISKYCPLDLYSGNKQRMHFALKSLLQEAQNNLKIFKNGELIYGCKDARSPVADWSELAHHLKPFFFPSNGLASGPHCTRAVIRELVHVITRVLLSGSDKGRAGTLSPGLGPQGPRVCEASPFSRSLRCQGKNTPERSGLPKGCLLYKTLQVQMLDLLDIEGLYPLYNRVERYLEEFPEERKTLQIDGPYDEAFYQKLLDLSTEDDGTVAFALTKVQQYRVAMTAKDCSIMIALSPCLQDASSDQRPVVPSSRSRFAFSVSVLDLDLKPYESIPHQYKLDGKIVNYYSKTVRAKDNAVMSTRFKESEDCTLVLHKV”, the protein production entry is on record as “failed”.

Values taken from a protein production outcome set (Wang et al. 2014).
